Measurements: the supplement of paper PMC10567573

B1: PCDHGA10 (parent)
chain: FGIEIEVTDINDNAPKFQAENLDV

Variants of: B1
Test: protein stability index of a GFP-peptide fusion (GPS, HEK-293T) (PSI 1-6); higher = more stable
Conditions: c terminus: a fixed tail appended
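Note: lentivirally expressed fusions sorted by FACS into six bins by GFP to DsRed ratio, PSI derived from sequencing read proportions per bin multiplied by bin number.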

| Variant | protein stability index |
| --- | --- |
| MGIEIEVTDINDNAPKFQAENLDV [F1M] | 3.52 |
| SGIEIEVTDINDNAPKFQAENLDV [F1S] | 4.75 |
| GGIEIEVTDINDNAPKFQAENLDV [F1G] | 4.49 |
| WGIEIEVTDINDNAPKFQAENLDV [F1W] | 2.54 |
| HGIEIEVTDINDNAPKFQAENLDV [F1H] | 4.67 |
| KGIEIEVTDINDNAPKFQAENLDV [F1K] | 4.39 |
| AGIEIEVTDINDNAPKFQAENLDV [F1A] | 4.72 |
| EGIEIEVTDINDNAPKFQAENLDV [F1E] | 4.8 |
| VGIEIEVTDINDNAPKFQAENLDV [F1V] | 2.93 |
| FGIEEEVTDINDNAPKFQAENLDV [I5E] | 5.17 |
| FGIESEVTDINDNAPKFQAENLDV [I5S] | 5.39 |
| FGIEYEVTDINDNAPKFQAENLDV [I5Y] | 3.85 |
| FGIEKEVTDINDNAPKFQAENLDV [I5K] | 4.92 |
| FGIEREVTDINDNAPKFQAENLDV [I5R] | 4.79 |
| FGIEDEVTDINDNAPKFQAENLDV [I5D] | 4.58 |
| FGIEGEVTDINDNAPKFQAENLDV [I5G] | 5.02 |
| FGIEIEVTDINDNAPKFQAINLDV [E20I] | 2.72 |
| FGIEIEVTDINDNAPKFQAKNLDV [E20K] | 2.08 |
| FGIEIEVTDINDNAPKFQAMNLDV [E20M] | 2.06 |
| FGIEIEVTDINDNAPKFQAPNLDV [E20P] | 2.13 |
| FGIEIEVTDINDNAPKFQAANLDV [E20A] | 2.15 |
| FGIEIEVTDINDNAPKFQASNLDV [E20S] | 2.71 |
| FGIEIEVTDINDNAPKFQAVNLDV [E20V] | 1.91 |
| FGIEIEVTDINDNAPQFQAENLDV [K16Q] | 3.35 |

| Variant | protein stability index |
| --- | --- |
| FGIEIEVTDINDNAPRFQAENLDV [K16R] | 3.02 |
| FGIEIEVTDINDNAPMFQAENLDV [K16M] | 3.07 |
| FGIEIEVTDINDNAPFFQAENLDV [K16F] | 2.21 |
| FGIEIEVTDINDNAPWFQAENLDV [K16W] | 1.72 |
| FGIEIEVTDINDNAPVFQAENLDV [K16V] | 2.64 |
| FGIEIEVTDINDNAPPFQAENLDV [K16P] | 3.31 |
| FGIEIEVTDINDNAPEFQAENLDV [K16E] | 3.88 |
| FGIEIEVTDINDNAPLFQAENLDV [K16L] | 2.31 |
| FGIEIEVTDINSNAPKFQAENLDV [D12S] | 2.25 |
| FGIEIEVTDINENAPKFQAENLDV [D12E] | 3.13 |
| FGIEIEVTDINCNAPKFQAENLDV [D12C] | 1.8 |
| FGIEIEVTDINRNAPKFQAENLDV [D12R] | 2.48 |
| FGIEIEVTDINQNAPKFQAENLDV [D12Q] | 2.71 |
| FGIEIEVTDININAPKFQAENLDV [D12I] | 1.84 |
| FGIEIEVTDIHDNAPKFQAENLDV [N11H] | 2.41 |
| FGIEIEVTDIMDNAPKFQAENLDV [N11M] | 2.15 |
| FGIEIEVTDITDNAPKFQAENLDV [N11T] | 2.26 |
| FGIEIEVTDIGDNAPKFQAENLDV [N11G] | 2.66 |
| FGIEIEVTDIWDNAPKFQAENLDV [N11W] | 1.96 |
| FGIEIEVTDIRDNAPKFQAENLDV [N11R] | 2.73 |
| FGIEIEVTDISDNAPKFQAENLDV [N11S] | 2.84 |
| FGIEIEVTDIKDNAPKFQAENLDV [N11K] | 2.99 |
| FGIEIEVTDIQDNAPKFQAENLDV [N11Q] | 2.52 |
| FGIEIEVTDILDNAPKFQAENLDV [N11L] | 1.77 |

| Variant | protein stability index |
| --- | --- |
| FHIEIEVTDINDNAPKFQAENLDV [G2H] | 2.18 |
| FYIEIEVTDINDNAPKFQAENLDV [G2Y] | 3 |
| FPIEIEVTDINDNAPKFQAENLDV [G2P] | 4.63 |
| FCIEIEVTDINDNAPKFQAENLDV [G2C] | 2 |
| FRIEIEVTDINDNAPKFQAENLDV [G2R] | 1.49 |
| FIIEIEVTDINDNAPKFQAENLDV [G2I] | 2.57 |
| FSIEIEVTDINDNAPKFQAENLDV [G2S] | 1.92 |
| FAIEIEVTDINDNAPKFQAENLDV [G2A] | 2.02 |
| FGIEIEVTDINDNAPKFQAEQLDV [N21Q] | 2.8 |
| FGIEIEVTDINDNAPKFQAEYLDV [N21Y] | 1.73 |
| FGIEIEVTDINDNAPKFQAEALDV [N21A] | 2.49 |
| FGIEIEVTDINDNAPKFQAEMLDV [N21M] | 2.42 |
| FGIEIEVTDINDNAPKFQAEGLDV [N21G] | 2.83 |
| FGIEIEVTDINDNAPKGQAENLDV [F17G] | 3.94 |
| FGIEIEVTDINDNAPKCQAENLDV [F17C] | 3.73 |
| FGIEIEVTDINDNAPKAQAENLDV [F17A] | 4.12 |
| FGIEIEVTDINDNAPKKQAENLDV [F17K] | 4.42 |
| FGIEIEVTDINDNAPKTQAENLDV [F17T] | 4.14 |
| FGIEIEVTDINDNAPKHQAENLDV [F17H] | 4.28 |
| FGIEIEVTDINDNAPKYQAENLDV [F17Y] | 3.18 |
| FGIEIEVTDINDNAPKEQAENLDV [F17E] | 4.81 |
| FGIEIEVTRINDNAPKFQAENLDV [D9R] | 2.04 |
| FGIEIEVTEINDNAPKFQAENLDV [D9E] | 2.69 |
| FGIEIEVTTINDNAPKFQAENLDV [D9T] | 1.96 |

| Variant | protein stability index |
| --- | --- |
| FGIEIEVTCINDNAPKFQAENLDV [D9C] | 1.95 |
| FGIEIEVTFINDNAPKFQAENLDV [D9F] | 2.69 |
| FGIEIEVTAINDNAPKFQAENLDV [D9A] | 1.98 |
| FGIEIEVTHINDNAPKFQAENLDV [D9H] | 1.81 |
| FGIEIEVTDINDNAPKFQAENLDN [V24N] | 3.28 |
| FGIEIEVTDINDNAPKFQAENLDP [V24P] | 3.4 |
| FGIEIEVTDINDNAPKFQAENLDH [V24H] | 3.6 |
| FGIEIEVTDINDNAPKFQAENLDC [V24C] | 2.8 |
| FGIEIEVTDINDNAPKFQAENLDG [V24G] | 3.7 |
| FGIEIEVTDINDNAPKFQAENLDT [V24T] | 3.47 |
| FGIEIEVTDINDNAPKFQAENLDE [V24E] | 3.46 |
| FGIEIEVTDINDNAPKFQAENLDA [V24A] | 3.48 |
| FGIEIEVTDINDNAPKFQAENLDQ [V24Q] | 3.62 |
| FGIEIEVTDINDNAPKFQAENLDW [V24W] | 2.81 |
| FGIEIEVTDINDNAPKFQAENLDK [V24K] | 3.52 |
| FGIEIEVTDINDNAPKFQAENLDR [V24R] | 3.71 |
| FGIEIELTDINDNAPKFQAENLDV [V7L] | 2.45 |
| FGIEIEWTDINDNAPKFQAENLDV [V7W] | 1.78 |
| FGIEIEATDINDNAPKFQAENLDV [V7A] | 4.33 |
| FGIEIEPTDINDNAPKFQAENLDV [V7P] | 4.72 |
| FGIEIENTDINDNAPKFQAENLDV [V7N] | 4.46 |
| FGIEIEDTDINDNAPKFQAENLDV [V7D] | 5.46 |
